Data published in paper PMC3713617.
Substitutions are numbered along the chain they refer to. Like-named read-outs stand apart in the source and are kept apart here.

Experiments:
[1] = biological target: Helicobacter pylori ferric uptake regulator, wildtype (HpFurWT) (H. pylori) (UniProt O25671); assay: cross-linking
HpFurH134Y [2] = biological target: T1, HpFurH134Y (Helicobacter pylori, UniProt O25671 1-150, H134Y); assay: fluorescence anisotropy
T1 sequence: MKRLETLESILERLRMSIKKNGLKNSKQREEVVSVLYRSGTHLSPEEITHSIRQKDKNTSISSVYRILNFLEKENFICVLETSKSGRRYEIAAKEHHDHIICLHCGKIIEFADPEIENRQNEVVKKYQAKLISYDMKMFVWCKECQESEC

HpFurE5A [3] = biological target: T2, HpFurE5A (Helicobacter pylori, UniProt O25671 1-150, E5A); assay: fluorescence anisotropy
T2 sequence: T1 sequence with E5A, Y134H

HpFurWT [4] = biological target: T3, HpFurWT (Helicobacter pylori, UniProt O25671 1-150); assay: fluorescence anisotropy
T3 sequence: T1 sequence with Y134H

HpFurA92T [5] = biological target: T4, HpFurA92T (Helicobacter pylori, UniProt O25671 1-150, A92T); assay: fluorescence anisotropy
T4 sequence: T1 sequence with A92T, Y134H

HpFurE5A [6] = biological target: T2, HpFurE5A; assay: competition
HpFurH134Y [7] = biological target: T1, HpFurH134Y; assay: fluorescence anisotropy; remark: listed apart in the source
HpFurWT [8] = biological target: T3, HpFurWT; assay: fluorescence anisotropy; remark: listed apart in the source
HpFurA92T [9] = biological target: T4, HpFurA92T; assay: fluorescence anisotropy; remark: listed apart in the source
HpFurA92T [10] = biological target: T4, HpFurA92T; assay: competition

Helicobacter pylori ferric uptake regulator, wildtype (HpFurWT) (from UniProt O25671 1-150) (natural protein)
stoichiometry N [1]: 2

B1: amiE Fur box duplex (dsDNA)
DNA 1: TGCCCCAATAATCATAATGATTAA
DNA 2: TTAATCATTATGATTATTGGGGCA
Kd (HpFurH134Y [2]): 6 ± 1 nM | Kd (HpFurE5A [3]): 2 ± 1 nM | Kd (HpFurWT [4]): 16 ± 2 nM | Kd (HpFurA92T [5]): 15 ± 2 nM

B2: amiE Fur box scrambled (GT repeats) (dsDNA)
DNA 1: TGCCCCGTGTGTGTGTGTGTATTAA
DNA 2: TTAATACACACACACACACGGGGCA
binding result (HpFurE5A [6]): no binding

B3: pfr apo-Fur binding site duplex (dsDNA)
DNA 1: TTCATTATCATTTATGCTAT
DNA 2: ATAGCATAAATGATAATGAA
Kd (HpFurH134Y [7]): 8 ± 1 nM | Kd (HpFurWT [8]): 43 ± 2 nM | Kd (HpFurA92T [9]): 13 ± 1 nM

B4: pfr scrambled (GT repeats) (dsDNA)
DNA 1: TTCATTAGTGTGTATGCTAT
DNA 2: ATAGCATACACACTAATGAA
binding result (HpFurA92T [10]): no binding
